Assay results published in a protein production outcome set (Wang et al. 2014).

Experiment: label from the status in PepcDB records

Sequence	protein production
MTSASAALPQQPGRTKAFLRLVMIEHSVFALPFAYIAALTAMFQWDRNIHWVRLLLVTVAMVGLRTFAMAANRIIDREIDARNPRTAHRELVTGAMSVRHAWTGALVALVFFLGAAALLNPLCLALAPIAVIPMVVYPYGKRFTNFPQAILGLAQAMGPVGGWLAISGEWSWDAVILGLAVGVWIGGFDLIYACQDVETDREVGVMSVPARFGIQAAIWGARVCHAITTALLVWYAFATDAGAFFWFGLVIVAGAFLYEHSIVKPHDLSRLNRAFFSTNGFIGISLFVCALGDLLVRGLTV	failed
MERSIGFGQALKLFWKNYVNFKGRSRRSEYWFMALWNIIFMMPALILYIIGLIMTVSGAASSSEELVAIGVILLFLSICYALIYSLATLIPGWALLIRRFHDTGRTMLMPLIYLGVIVISYPVLFVVNIQDPEYNNPVYIIFFAIIFLVYIALGIYMLVICCLDSERKTNKYGASHKYGNHIKSSTNTYANQDAPIHEDTNVKHVNSEENAFSEEVNTSDENATKKDDNFKY	failed
MKVYLHFSPQFFANTYLIGNEITKEAVIIDPAKITEKMIHQIEKNEFNLKAVLLTHDLEHPYETGLNTILKIYSPKVYAGSCFSENVTINTLRGDGCIDVAGYSVRYFAIPAHSSYSYMFQIENMVFTGTSLSAGMIGQTSNMYAERTLRNILKTKLMCFEDNLIIMPFYGPPTSIGVERKYNASFFQDLEHHHHHH	failed
MSVSGQPVLRAAVVTLQGRREDNQDFAAIAEPSPRDAAARGFVAAVADGIGGARGGRVAAEVSVRSFMEAYYGLSETLGMQQLLDRCLGSANRWVHAMGRLDPELAHMGTTFSGLIFRGRRAYLVHVGDSRIYRLRGDEPELLTSDHTLSGPGLDHVLYRAVGLDPGLRIDYSVYPLEPHDRFLLCSDGLHGSLQQEQIREILQERATPETTAEALARLAFEQGSQDNITALVVDVIALPPAEKQSLRLAIESLPLLDLPEVGDEVDGFRLERLLSSGRYSALFLAADTLGQDKPVVVKFPHPRVASEREYYDAFVREAWIGARVKSPWVGEILEQTPGRQSRLYSVMPFYPGASLEHELARRPRIGLEAGIDLALKLCKAVHALHRQQIVHRDIKPDNVLLDPEGGLKLLDLGIARLPAWDEDQADPIPGTPSYMAPEMFQGERGSIATDVFALGVTLYRTFAGGAYPYGEVEPFSTPRFGSPRPLTAHRPDLPAWLDAVLARAIAADPAQRPADAVELAYELEAGLEKGGGRRPPRRPLPLYERNPLQFWKAVAALLLALLAMAGLRLSLSCRPPSEAASRNNPLIHDNGDSR	failed
MELEQKLNLLNDLIVREIVNPLPPPYKVGVDLGTADIVLVVTDQEGIPVAGALKWASVVKDGLVVDYIGAIQIVRELKAKVERLLGSELFQAATAIPPGTVGRNAEACGHVVAGAGLELVTLVDEPVAAARALGINDGIVVDIGGGTTGIAVIEKGKITATFDEPTGGTHLSLVLAGSYKIPFEEAETIKKDFSRHREIMPVVRPVIEKMALIVKEVIKNYDQTLPVYVVGGTAYLTGFSEEFSRFLGKEVQVPIHPLLVTPLGIALFG	not failed
MVALPDWMALAPALSLALASLVLLLADSIDPDSTNTGLLAGISVLGSLLSFGFAGWFITAGTGMADNTGVALFNSQLVVDQMALFFMAIVGSVTTLVVLASYDYITEHSYQAEFFALVLLSATGMSLLSAANSLATAFVALELVSLPSYALVAFLKENKGSVEAGLKYFLIGAVSSAVLAYGISLVYAATGVLRFDGVATAISSGTIQTISEGSIQAQSGDPAVPMAILGVGILMIIGGVAFKTASVPFHFWAPEAYEGAPAPISAFLSSASKAAGFVLAFRAFAVAFPIGDLLAAGGAINWVMAFQILAIATMFIGNFAAATQETVKRMLAYSSVGHAGYVLIGLAAVSGSGEGLSLSLSAGMSHLLVYGFMNTGAFLFIALAEYWGVGRRFEDYNGLGKEAPVACAAMTVFLFSLAGLPIGGGFFSKFYLFSATLNVGAWSLAAALIINSALSLFYYSRVVKAMWIEEPTGSRTIESYPMGLYTAVVGAAIVTVLLVPGFNRVSEIAFQAAQLL	failed
MANLKSLPVGDKAPEVVHMVIEVPRGSGNKYEYDPDLGAIKLDRVLPGAQFYPGDYGFIPSTLAEDGDPLDGLVLSTYPLLPGVVVEVRVVGLLLMEDEKGGDAKVIGVVAEDQRLDHIQDIGDVPEGVKQEIQHFFETYKALEAKKGKWVKVTGWRDRKAALEEVRACIARYKG	not failed
MKTWFKYIKLLLLSVCTFLLVTGCNSNVSKLPSNQTTSNITTNCRVINHEAGKTQICGQPKKVVALSPPVLDMMLALGVQPAGYAEVDLLNSKVFDRPKEQIPYLGDRITSQPMNVGDRGNPSLESLLQLKPDLILGEASYNETEYQILNKIAPTILISHRDGITPAWQQTISIIAQALGREDKVPTVIAEYEQKLSQAKTAIAPIAQHQELLLLAFRGITLTSFTFGAETFAGGLLQDLGFKLVSPESTEYEVALEVLPKFKSDLIVIMPSGNNNIENAKRQWSQNPILQSISAHNTNRIYFIDYQLASRIRGPIAAELFVNQVRQLLS	failed
MDLTKQFPRSPVDRLGGMDHLKRVIDKARAHVAGTLGEYTYNCPLDQAFFSFFGLDHEKFAEAVKSRPQDQDMLAWVHSQSPRSKNPKEVESFNREYESRSPDSPEKWDYFRSVRDSLAPGRTDITTWVKLLDLEEKRPV	not failed
MSRDLGRLLKIASNQMSTRFDIFAKKYDLTGTQMTIIDYLSRNKNKEVLQRDLESEFSIKSSTATVLLQRMEIKKLLYRKVSGKDSRQKCLKLTKKANKLETIILSYMDSDQSQMTSGLNKEEVVFLEKILKRMIESD	not failed
MSATYQLALQQLTDSALPTGAFAHSLGFESYIHRGLVRDESTFSTWLQAFVSQQLSYSDGLALRFLFEGVDVGLLDGVLSAQLLAREVREASLKMGGRLLEIGGEVFPSAELEAYRGLVRAGSASGHQPLAFGVIARSLGVPLEEALSAYLFATVTSLTQNAVRAIPLGQNAGQRVLRQAHDAVAAAIHVVAQLCWDDFGAVSPGLEISQMRHERQRARMFMS	failed
MRFRYAMVCSSNQNRSMEAHALLKRQGLDVASYGTGSHVKLPGPSLREPNVYDFGTPYKQMFDELRRKDPELYKRNGILQMIKRNLSVKLAPQRWQDNAGDGVFDVVMTFEEKVFDSVLEDLNNREQSLTKTILVMNLEVKDNHEEAAIGGRLALELCQEIEGNETWEDTIDDIVAGFEKQHRRKLVYSISFY	failed
MINSVITQMAEELRKASKVALFSHVSPDGDCIGSMLGIGLALEALGKEVAMFNPDPIPRNLSFLPGVDKITQSMPDPLPETLLFVDCADLQRVQLQREDLPADAVILNLDHHISNQNFGRINWVDSQAAASGELAYALVRRLNVELTQEIAANFYTALLTDTGSFKYANTTAKTHQIAGELMETGISLGDIHHFVFDQTPMVKLELLRRGLNQLQFFAEGQLGMMTLRKQDFEESGAEESLSEGLIDHARTVEGVEVAVLLKEVKPDVVRVSLRSNRWFDVNRIADGFGGGGHQRAAGCTLHLSLEEAKQKVRQIIEEELKLGRSHLEHHHHHH	not failed
MRNSMMTIYPHLIICPHCDSVHHYRALNPGEAARCTRCQATLYRSGWINTGHSLALIQTAAIVFFIANSYPVLTVSFHALQNTATLWQAALALANGATLPLAIGCFFILIMAPFLQIMLTGWVLMFANKDRCAPGFIPVMKILLWLRPWSMLEIATLGFLIAAIKLSGFMQVMPGAGCWALAALMLLLVVVNSIDLRPLWSLVPTDSNHSVVRHEK	failed
MILTVGNTKGGVGKTTLAVNLAVERFLAGKDVLLIDADNQRTSSAFSALRESLHGQTGYTCIELSGSAVHQQGRNLAPKYDEVIIDVGGRDTSALRGALAISDIALVPFAVGTFDIWAAEDIGRLIEEARGFNPTLRAFSVLNMADPAGGDNADAAGLLTETSALVYLRASLVRRKAMRNAAAAGLGVLEMTGSSRDSKACGEVGYLAELLYNKLNLEHHHHHH	failed
MKVLTVVIPCYNSAEYMDRAIESLLIGDEELEILIVNDGSMDNTSIIADEYEKKYPNTIRVIHKENGGHGDAINTGLKHSKGVYFKVLDSDDWFDKASLKKVLEVLKNMIKDSKSLDMLISNYVYENFSINKSRSINYKGAMPKEKIFTWDSLGHLKSSQNILMHSVIYRTELLRECNLDLPKHTFYVDNIFVYKPLPYVKTMYYLDVDLYRYFIGREDQSVNEKVMIKRIDQQIKVTKILIDCYNPMLLNCKKLRKYMVKYLVMMMTVSTVLLIKDNTEQSLNKKRELWSYLHSKNRKLYFEVNKSFLGLLIQIKGFVGRKIILLGYSLSRKVFGFNLEHHHHHH	failed
MRPALTTVQVFALLAVALSTLVFAASFAVDTTSARPEPVAFDNTVQRGVTAADEQIARNRSISIPRAQVFYSQYRYVVGYVGIGQAVTALTEPGHEQQFGYPLAVYVSDYSDRPVRCGDDGSLRTATPPDWVEANQAHYVVDGSARVPSGPAVVPFADRDDAAAFTETCGGQIIDWETLKTYSFDLKQAAAVREQVGPRRSGADATVQAARQHRNRPVSVEVGTDAPTVQAAVDAAPPNTTVVVPAGTYNEQVMIDKPLSLSGPGATLDGGGNGTVVTVTADRVGVTGFEITGIGNTTVGDPTQSNDSAWDATVTTAYGNSDAAVTGRNASGLYVANITVETPASGVVLRRTPGAVVENVTVNGTADWQDGFMGVIGMHRPIVVQDSVFNGGRDGVYLHRADGTAVRNNAFRDNRFGVHLMYTSRSLVADNVARGQEYAGVVVMTNPVANAIVGNDVRHSGSGIMLAGSRSYIAHNVVVDTTQAMSTNADRSLYEHNVLYGNDIGVRASTVVPSNIVTDNDFIANDRHAISGPGPLRVYTHDGRGNYWSGAYDLTGGTGPVLAQSYSPTDSVDRRLHQTDAAVVLRAAPSVRGLRALRGTTPGFRRGSIVDRAPLADPANPETVRRLRNETSMEGAA	failed
MIRLAAIDVDGTLTDRDRLISTKAIESIRSAEKKGLTVSLLSGNVIPVVYALKIFLGINGPVFGENGGIMFDNDGSIKKFFSNEGTNKFLEEMSKRTSMRSILTNRWREASTGFDIDPEDVDYVRKEAESRGFVIFYSGYSWHLMNRGEDKAFAVNKLKEMYSLEYDEILVIGDSNNDMPMFQLPVRKACPANATDNIKAVSDFVSDYSYGEEIGQIFKHFELM	not failed
GIATSDNFMQAFLNVLDQCPKLEVDIPLVKSYLAQFAARAIISELVSISELAQPLESGTHFP	failed
MCKHILGKGYVDGVIEADEVFFTESFKGTKPSNMPRRSRKIGKQVKKSGISKEQVCITTAIDRQGNLIMELACKGRITSKELEKLYDGHISNESILCTDSRKSYIQFANDLSLEHKRIKRGKHKEGLYHIQHINVLHSNLRKWMNRFNGAATKYISNYIKWFKWLQIFDTHKEIIKAKNFIVQSNVAHAYIKVKDLKYREPICV	failed
MNFKKLSNAKVSVMAVVLSVGILSGYSALNKQVTLVVRGEERTISTFSSNVGDLLESQNISYDANDIVTLDENTKLSNGDKIEVIDVKEKTVVETKDIPFEVTVVEDGSLLKGDSKVKEEGKSGKSELIYKETYHNGKKVEKEFVKKVVKAEPVNKVVSKGTKVEMQVASSRGESSRRMASSSSSSSSSNNGKNMRVVATAYTGHSITATGTKPKWGTIAVDPKVIPYGTKVYIPQFDMVFTAEDCGGAIKGNKIDIYMNDSKTVYNWGRKTIDIRILK	failed
PINVRVTTMDAELEFAIQPNTTGKQLFDQVVKTVGLREVWFFGLQYVDSKGYSTWLKLNKKVTQQDVKKENPLQFKFRAK	failed
